Measured values from publication doi:10.1101/208272 (bioRxiv, 2017).
Blank lines part the entries; values can stand above or below the molecule they belong to.

Key:
[1] = target: Cdh23-EC1+2 (mouse cadherin-23 extracellular repeats EC1 and EC2), wild type (mouse) (UniProt Q99PF4); assay: dynamic light scattering
[2] = target: Cdh23-EC1+2 (mouse cadherin-23 extracellular repeats EC1 and EC2), wild type (mouse) (UniProt Q99PF4); assay: AUC
[3] = target: Cdh23-EC1+2 (mouse cadherin-23 extracellular repeats EC1 and EC2), wild type (mouse) (UniProt Q99PF4); assay: SEC
[4] = target: Cdh23-EC1+2 (mouse cadherin-23 extracellular repeats EC1 and EC2), wild type (mouse) (UniProt Q99PF4); assay: single-molecule force spectroscopy
[5] = target: Cdh23-EC1+2 (mouse cadherin-23 extracellular repeats EC1 and EC2), wild type (mouse) (UniProt Q99PF4); assay: FRET or BRET
[6] = target: Cdh23-EC1+2 V3C, labelled with cy3 or cy5 at the N-terminus (mouse); assay: FRET or BRET
AUC = target: the molecule itself; assay: AUC

- stoichiometry N [1]: 2
- Kd [2]: 18 µM
- stoichiometry N [2]: 2
- stoichiometry N [3]: 2
- percent unbinding events [4]: 8 to 10%
- probability of events [4]: 6%
- τ0 (intrinsic lifetime at zero force), high-force distribution [4]: 1220 s
- τ0 (intrinsic lifetime at zero force), low-force distribution [4]: 1.86 s
Molecule: Cdh23-EC1+2 (mouse cadherin-23 extracellular repeats EC1 and EC2), wild type (from UniProt Q99PF4 24-228) (domain or fragment)

- FRET efficiency [5]: 0.64
- FRET efficiency [6]: 0.15
Molecule: Cdh23-EC1+2 V3C, labelled with cy3 or cy5 at the N-terminus (domain or fragment)

B1: Cdh23-EC1 (mouse cadherin-23 extracellular repeat EC1) (domain or fragment, UniProt Q99PF4 24-124, looked up)
chain: QVNRLPFFTNHFFDTYLLISEDTPVGSSVTQLLARDMDNDPLVFGVSGEEASRFFAVEPDTGVVWLRQPLDRETKSEFTVEFSVSDHQGVITRKVNIQVGD
modifications: C-terminus covalently joined by sortase A to GGGGC on PEG-coated coverslips and AFM cantilevers in force spectroscopy
- stoichiometry N (AUC): 2
